Experiment: yeast display, Sf9 membrane polyspecificity reagent, FACS + sequencing; frameworks hold sequencing errors
Procedure, shortened: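 Nanobodies came from a synthetic yeast display library in Saccharomyces cerevisiae BJ5465, induced with galactose for 36–48 hours and stained for 1 hour at 4 °C with 10% biotinylated, detergent-solubilized Sf9 membrane reagent. Cells were enriched on streptavidin microbeads and then FACS-sorted, with low and high (top ~1%) gates set on anti-HA fluorescence for expression and streptavidin fluorescence for reagent binding. Each polyreactivity label reflects the gate a clone came from. Genes were amplified by colony PCR, sequenced by MiSeq 2 × 250 and filtered by CDR length.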

| Sequence | polyreactivity (PSR sort gate) |
| --- | --- |
| QVQLVESGGGLVQAGGSLRLSCAASGGIFAPYAMGWYRQAPGKERELVATISFSGGSTYYADSVKGRFTISRDNAKNTVYLQMNSLKPEDTAVYYCAKRYIYSLLYGLDYWGQGTQVTVSS | low polyreactivity |
| QVQLVESGGGIVQAGGSLRLSCAASGRTSWYYAMGWYRQAPGKERELVAAITASGGSTYADSVKGRFTISRDNAKTSVYLQMNRLKPEDSAVYYCAAERPYSRVGYYYWGQGTQVTVSS | high polyreactivity |
| QVQLVESGGGLVQAGGSLRLSCAASGRIIYTYAMGWYRQAPGKERELVAAISWSGGSTYYADSVKGRFTISRDNAKNTVYLQMKSLKPEDTAVYFCNAAYYGYENLSKRGYWGQGTQVTVSS | high polyreactivity |
| QVQLLESGGGLVQAGGRLRLSCAASGSIFLWNAMGWYRQAPGKERELVAAITNIGGRTYYADSVKGRFTISRDNAKNTVYLQMNSLKPEDTAVYYCNVVVKGAWDYYPYDYWGQGTQVTVSS | high polyreactivity |
| QVQLVESGGGLVQAGGSLRLSCAASGRTFWYYAMGWYRQAPGKAREWVATISYRGGSTYYADSVKGRFTISRDNAKNTVNLQMNSLKPEDTAVYYCAAKQWWGGRPKVDYWGQGTQVTVSS | high polyreactivity |
| QVQLVESGGGLVQAGGSLRLICAASGTFRINAMGWYRQAPGKEREFVATITSGGSTNYADSVKGRFTISRDNAKNTVYLQMNSLKPEDTAVYYCSRTRKIAGYYFWGQGTQVTVSS | high polyreactivity |
| QVQLVESGGGLVQAGGSLRLSCAASGFTFEKNAMGWYRQAPGKERELVAAISRGGSTYADSVKGRFTISRDNAKNTVYLQMNSLKPEDTAVYYCAADTVYIFSSAINGEFGYWGQGTQVTVSS | low polyreactivity |
| QVQLVESGGGLVQAGGSLRLSCAASGIIFYVYALGWYRQAPGKERELVAAISYTSSTYADSVKGLFTISRDNAKNTVYLQMNSLKPEDTAVYYCNTDYSDGYPAFDFWGQGTQVTVSS | low polyreactivity |
| QVQLVESGGGLVQAGGSLRLSCAASGRTFTRYAMGWYRQAPGKERELVATITRGGSTNYADSVKGRFTISRDNAKNTVYLQMNSLKPEDTAVYYCAAGYFIRTRSRYRYDYWGQCTQVTVSS | high polyreactivity |
| QVQLVESGGGLVQAGGSLRLSCAASGRTFRRNAMGWYRQAPGKERELVASITGTGSTTYYADSVKGRFTISRDNAKNTVYLQMNSLKPEDTAVYYCAASSKYQDYWGQGTQVTVSS | high polyreactivity |
| QVQLVESGGGLVQAGGSLRLSCAASGFTFVSNAMGWYRQAPGKERELVAAITYSGTRTYYADSVKGRFTISRDNAKNTVYLQMNSLKPEDTAVYYCAARRGYASAYYYWGQGTQVTVSS | high polyreactivity |
| QDQLVQSGGGLVQAGGSLRLSCDASGSTLNWYAMGRYRQAPGKERELVAVITSSGVSTYYADSVKGRFTISRDNAKNTVYLQMNSLKPEDTAVYYCNAKWYRWQRGTVKYDYWGQGTQVTVSS | low polyreactivity |
| QVQLVESGGGLVQAGGSLRLSCAASGLIFGRNAMGWYRQAPGKERELVAAITSGGSTYYADSVKGRFTISRDNAKNTVYLQMNSLKPEDTAVYYCAADVVDLYLLDYWGQGTQVTVSS | low polyreactivity |
| QVQLVESGGGLVQAGGSLRLSCAASGSIFYWNAMGWYRQAPGKERELVAAISSSGSSTYYADSVKGRFTISRDNAKNTVYLQMNSLKPEDTAVYYCAADNYNSGGTRHMYYWGQGTQVTVSS | high polyreactivity |
| QVQLVESGGGLVQAGGSLRLSCASSGSIFDFNAMGWYRQAPGKERELVATIRYSGGSTYYADSVKGRFTISRDNAKNTVYLQMNSLKPVDTAVYYCAADPDWTHWFAYYYHYGYWGQGTQVTVSS | low polyreactivity |
| QVQLVESGGGLVQAGGSLRLSCAASGITFWYYAMGWYRQAPGKERELVAAISSSGGRTTYADSVKGRFTISRDNAKNTVYLQMNSLKPEDTAVYYCATTYGDRYVTAYDYWGQGTQVTVSS | high polyreactivity |

| Sequence | polyreactivity (PSR sort gate) |
| --- | --- |
| QVQLVESGGGLVQAGGSLRLSCAASGNIFEYYAMGWYRQAPGKERELVATITSGGSTNYADSVKGRFTISRDNAKNTVYLQMNSLKPEDTAVYYCNADIISVSVYYFIVEYDYWGQGTQVTVSS | low polyreactivity |
| QVQLVESGGGLVQAGGSLRLSCAASGSTFALYVMGRYRQAPGKERELVAAINSVGSKYYADSVKGRFTISRDNAKNTVYLQMHSLKPEDTSVYYCAAVSTYRPGWYYRYNYWGHGTQVTVSS | high polyreactivity |
| QVQLVESGGGLVQAGGSLRLSCAASGRIFWFYTMGWNRQAPGKERELVARITTSGGSTYYADSVKGRFTISRDNAKNTVYLQMNSLKPEDTAVYYCAARPRDYHSFSLDYYYWGQGTQVTVSS | high polyreactivity |
| QDQLVESGGGLVQAGGSLRISIAASARTFRDYVMGWSRQAPGKERELVAAISTRGASTYYADSVKGRFTISRDNAKNTVYLQMNTLKPEDTADYYCAARSTRRGNEYDYWGQGTQVTVSS | high polyreactivity |
| QVQHVESGGGLVQAGGSLRLSCAASGSTIRRNAMGWYRQAPGKERELVAAISGTGGRTYYADSVKGRFTISRDNAKNTVYLQMNSLKPEDTAVYYCNAAGRFYWGQGTQVTVSS | high polyreactivity |
| QGQLVESGGGLVQAGGSLRLSCAASGSIFDTYAMGWYRQAPGKERELVAAITRRAGSTYYADSVKGRFTISRDHAKNTLYFQMNSLKPEETSVYYCAAGYDRYPGGIDEYWGQGTQVTVSS | low polyreactivity |
| QVQLVESGGGLVQAGGSLRLSCAASGFIFYTYAMGWYRQAPGKERELVAAIRRGGSTYYADSVKGRFTISRDNAKNTVYLQMNSLKPEDTAVYYCNARIPYKAKTNHFGYWGQGTQVTVSS | high polyreactivity |
| QVQLVESGGGLVQAGGSLRLSCAASGSICSSYAMGWYRQAPGKERELVAAISGSGGSTFYADSVKGRFTISRDNAKNTVYLQMNSLKPEDTAVYYCAARYYWYGRAGKKHASYYYWGQGTQVTVSS | high polyreactivity |
| QVQLVESGGGLVQAGGSLRLSCAASGSTFGSYAMGWYRQAPGKERELVAGISWSGGRTYYADSVKGRFTISRDNAKNTVYLQMNSLKPEDTAVYYRARDTGYYYARYNYWGQGTQVTVSS | low polyreactivity |
| QVQLVESGGGLVQAGGSLRLSCAASGSIFSRNAMGWYRQAPGKEREFVARISWSSTSTNYAESVKGRFTISRDNAKNTVYLQMNSLKPEDSAVYYCAAHFRGDRRFDYWGQGTQVTVSS | high polyreactivity |
| QVQLVESGGGLVQAGGSLRLSCAASGGTFGYNVMGWYRQAPGKERELVAAISYSVGGTYYADSVKGRFTISRDNAKNTVYLQMNSLKPEDTEVYYCAATGRRRTYSEYEYWGQGTQVTVSS | high polyreactivity |
| QVHLVESGGGLVQAGGSLRLSCAASGSTFYPYAMGWYRQAPGKEREVVAGISRSGGTTYYADSVKGRFTISRDNANNTVYLQMNSLKPEDTAVYYCAVQIPYVYWSYDYWGQGTQVTVSS | low polyreactivity |
| QVQLVESGGGLVQAGGSLRLSCAASGSTFGAYAMGWSRQAPGKERELVAAISKRGGSTYYADSVKGRFTISRDNAKNTVYLQMNSLKPEDTAVYYCATDHFSPTYGYWGQGTQVTVSS | low polyreactivity |
| QVQLEESGGGLVQAGGSLRLSCAASGFILTGNVMGWYRQAPGKEREFVAGISRSGGTYYADSVKGRFTISRDNAKNTVYLQMNSLKPEDTAVYYCAAKPIYYSRGYYWGQGTQVTVSS | high polyreactivity |
| QVQLVETGGGLVQAGGTLRLSCAPSGLIVDLYAMGCYRQAPGKERELVATISGSGGSTYYADSEKGRFTISRDNAKNTVYLQMNSLKPEDTAFYYCAAVSVSSWYDDCGQGTQVTVSS | low polyreactivity |
| QVQLVESGGGLVQAGGSLRLSCAASGSTFDPKAMGWYRQAPGKERELVAAISYTGGRTYYADSVKGRFTISRDNAKNTVYLQMNSLKPEDTAVYYCAVLVVGSTTQDEPYFSGVEHDYWGQGTQVTVSS | low polyreactivity |

Reference: the nanobody polyreactivity screen of Harvey et al. (2022)
